Laboratory results from paper PMC10786891, “Massively parallel profiling of RNA-targeting CRISPR-Cas13d”.
Where a chain is given by its changes, count along the chain named. Numbers in names are those of the source.

T1: EsCas13d, nuclease-dead (Eubacterium siraeum, UniProt B0MS50, R295A;H300A;R849A;H854A)
T1 sequence: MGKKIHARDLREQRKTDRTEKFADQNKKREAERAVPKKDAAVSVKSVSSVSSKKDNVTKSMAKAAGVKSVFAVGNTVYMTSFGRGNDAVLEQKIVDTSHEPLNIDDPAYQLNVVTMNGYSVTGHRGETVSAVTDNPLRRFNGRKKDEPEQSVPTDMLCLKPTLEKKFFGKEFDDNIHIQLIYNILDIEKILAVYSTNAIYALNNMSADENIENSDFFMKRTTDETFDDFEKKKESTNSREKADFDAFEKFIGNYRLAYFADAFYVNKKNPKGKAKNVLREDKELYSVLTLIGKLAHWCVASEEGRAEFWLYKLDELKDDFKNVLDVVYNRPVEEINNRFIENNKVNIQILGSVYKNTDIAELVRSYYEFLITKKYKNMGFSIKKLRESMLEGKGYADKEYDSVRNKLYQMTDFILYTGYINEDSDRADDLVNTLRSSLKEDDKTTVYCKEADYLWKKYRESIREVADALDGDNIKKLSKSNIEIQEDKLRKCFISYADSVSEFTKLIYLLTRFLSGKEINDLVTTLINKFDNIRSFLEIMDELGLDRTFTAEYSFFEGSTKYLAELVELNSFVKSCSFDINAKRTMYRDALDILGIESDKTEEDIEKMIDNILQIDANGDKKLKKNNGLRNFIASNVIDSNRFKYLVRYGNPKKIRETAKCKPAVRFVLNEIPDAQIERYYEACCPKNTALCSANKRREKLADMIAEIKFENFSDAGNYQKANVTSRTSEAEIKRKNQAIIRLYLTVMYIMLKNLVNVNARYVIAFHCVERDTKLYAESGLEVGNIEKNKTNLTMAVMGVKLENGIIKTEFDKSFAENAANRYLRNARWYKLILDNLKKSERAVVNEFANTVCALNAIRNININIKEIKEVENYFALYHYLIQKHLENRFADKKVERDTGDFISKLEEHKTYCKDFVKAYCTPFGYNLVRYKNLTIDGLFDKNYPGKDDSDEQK

B1: target 1 MT 5'PFS GCU 3'PFS UCG (mixed)
RNA 1: CACCCGUGCAAAAAUGCAGGGGUCUAAAACUGAGCGGAUAACCUCUCUAUGG
RNA 2: GGGAAUGGAUCCACAUCUACGAAUUCGCUCCAUAGAGAGGUUAUCCGCUCAUCGAGAUCGGAAGAGCACACGU
B2: target 1 MT 5'PFS GCU 3'PFS UCA (mixed)
RNA 1: B1 RNA 1
RNA 2: B1 RNA 2 with G54A
B3: target 1 C2A,U11C (mixed)
RNA 1: B1 RNA 1
RNA 2: B1 RNA 2 with C28U, U29A, U41C, C50A, U52C
B4: target 1 MT 5'PFS GCU 3'PFS UCC (mixed)
RNA 1: B1 RNA 1
RNA 2: B1 RNA 2 with G54C
B5: target 1 MT 5'PFS GCU 3'PFS UCU (mixed)
RNA 1: B1 RNA 1
RNA 2: B1 RNA 2 with G54U
B6: target 1 MT 5'PFS CCU 3'PFS CUA (mixed)
RNA 1: B1 RNA 1
RNA 2: B1 RNA 2 with G27C, U52C, C53U, G54A
B7: target 1 MT 5'PFS UAG 3'PFS ACG (mixed)
RNA 1: B1 RNA 1
RNA 2: B1 RNA 2 with G27U, C28A, U29G, U52A
B8: target 1 MT 5'PFS UAG 3'PFS ACC (mixed)
RNA 1: B1 RNA 1
RNA 2: B1 RNA 2 with G27U, C28A, U29G, U52A, G54C
B9: target 1 MT 5'PFS UAG 3'PFS ACA (mixed)
RNA 1: B1 RNA 1
RNA 2: B1 RNA 2 with G27U, C28A, U29G, U52A, G54A
B10: target 1 MT 5'PFS UGU 3'PFS AAU (mixed)
RNA 1: B1 RNA 1
RNA 2: B1 RNA 2 with G27U, C28G, U52A, C53A, G54U
B11: target 1 MT 5'PFS AGA 3'PFS CGG (mixed)
RNA 1: B1 RNA 1
RNA 2: B1 RNA 2 with G27A, C28G, U29A, U52C, C53G
B12: target 1 MT 5'PFS GGG 3'PFS CGA (mixed)
RNA 1: B1 RNA 1
RNA 2: B1 RNA 2 with C28G, U29G, U52C, C53G, G54A
B13: target 1 MT 5'PFS AGA 3'PFS CGC (mixed)
RNA 1: B1 RNA 1
RNA 2: B1 RNA 2 with G27A, C28G, U29A, U52C, C53G, G54C
B14: target 1 C4A,A14G (mixed)
RNA 1: B1 RNA 1
RNA 2: B1 RNA 2 with C28U, U29A, A38G, C48A, U52C
B15: target 1 MT 5'PFS AGA 3'PFS CGA (mixed)
RNA 1: B1 RNA 1
RNA 2: B1 RNA 2 with G27A, C28G, U29A, U52C, C53G, G54A
B16: target 1 MT 5'PFS AAA 3'PFS CUG (mixed)
RNA 1: B1 RNA 1
RNA 2: B1 RNA 2 with G27A, C28A, U29A, U52C, C53U
B17: target 1 MT 5'PFS UCC 3'PFS CGA (mixed)
RNA 1: B1 RNA 1
RNA 2: B1 RNA 2 with G27U, U29C, U52C, C53G, G54A
B18: target 1 MT 5'PFS CAC 3'PFS ACU (mixed)
RNA 1: B1 RNA 1
RNA 2: B1 RNA 2 with G27C, C28A, U29C, U52A, G54U
B19: target 1 MT 5'PFS CUU 3'PFS UGC (mixed)
RNA 1: B1 RNA 1
RNA 2: B1 RNA 2 with G27C, C28U, C53G, G54C

The binders below were run against T1, EsCas13d, nuclease-dead (assay: crRNA (strand 1, pre-loaded); Mg2+; 40 mM Tris-HCl pH 7.5, 150 mM NaCl, 6 mM MgCl2, 1 mM DTT, 0.1% Tween-20, 0.2 mg/ml BSA; 25 C; 10 min per concentration, then washed). Conditions: tags: His6-TwinStrep-SUMO cleaved; N-terminal SNAP kept (SNAP-Surface 488); label: 3' end held by stalled T7 RNA polymerase.

| Binder | Kd [nM] |
| --- | --- |
| B1 | 39 ± 8 |
| B2 | 27.5 ± 6.5 |
| B3 | 9.5 ± 0.7 |
| B4 | 37.5 ± 13 |
| B5 | 30 ± 7 |
| B6 | 12.5 ± 6 |
| B7 | 19.1 ± 2.85 |
| B8 | 28.5 ± 6.5 |
| B9 | 31.5 ± 9.5 |
| B10 | ~100 |
| B11 | 41.5 ± 12.5 |
| B12 | ~71 |
| B13 | 37 ± 11 |
| B14 | 14.8 ± 1.5 |
| B15 | ~90 |
| B16 | 22.5 ± 5 |
| B17 | ~48.5 |
| B18 | 21 ± 7.5 |
| B19 | 22 ± 7 |
